Legend:
[1] = molecular target: Human CTLA4-FC recombinant protein (human); experiment: competition ELISA, human CTLA4-FC coated, blocked ligand CD80-FC-HIS, anti-HIS-HRP, OD450
[2] = molecular target: monkey CTLA4 on expressing cells (monkey); experiment: cell ELISA on monkey CTLA4 expressing cells, goat anti-human IgG-HRP, OD450
[3] = molecular target: T1, Human CTLA4-His recombinant protein (human, UniProt P16410 36-162); experiment: OCTET (BLI), antibody on protein A biosensor, CTLA4-HIS in solution
T1 construct: also called CTLA4-HIS (Sino Biological); CTLA4 recombinant protein; not shown: His tag
T1 sequence (looked up): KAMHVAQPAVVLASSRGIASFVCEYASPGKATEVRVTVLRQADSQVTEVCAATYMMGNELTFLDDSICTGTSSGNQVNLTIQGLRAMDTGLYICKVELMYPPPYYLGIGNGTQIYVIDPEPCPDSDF
Procedure: The affinity constant KD of the antibody to CTLA4 was determined using OCTET. Firstly, the protein A biosensor was used to immobilize the antibody to be detected, and the biosensors containing different antibodies were placed in the CTLA4-HIS diluent with the same concentration (Sino Biological) for binding for 4 min. The biosensor was then placed in the PBS for 400 s. The affinity constant KD of the antibody was analyzed by OCTET analysis software, KD is kd/ka.

For Isotype (antibody), the IC50 [1] was 43.6 nM.

With Isotype control (antibody) the EC50 [2] was 799 µg/mL.

B1: HCA14-KH (Fc fusion)
chain 1: ESKYGPPCPPCPAPEFLGGPSVFLFPPKPKDTLMISRTPEVTCVVVDVSQEDPEVQFNWYVDGVEVHNAKTKPREEQFNSTYRVVSVLTVLHQDWLNGKEYKCKVSNKGLPSSIEKTISKAKGQPREPQVYTLPPCQEEMTKNQVSLWCLVKGFYPSDIAVEWESNGQPENNYKTTPPVLDSDGSFFLYSRLTVDKSRWQEGNVFSCSVMHEALHNHYTQKSLSLSLGK
chain 2: EVQLLESGGGLVQPGGSLRLSCAASGSIFSINHMAWYRQAPGKQRELVAGVNSRGTTNYVDSVKGRFTISRDNSKNTLYLQMNSLRAEDTAVYYCRALGGAVAAWGQGTLVTVSSGGGGSGGGGSGGGGSESKYGPPCPPCPAPEFLGGPSVFLFPPKPKDTLMISRTPEVTCVVVDVSQEDPEVQFNWYVDGVEVHNAKTKPREEQFNSTYRVVSVLTVLHQDWLNGKEYKCKVSNKGLPSSIEKTISKAKGQPREPQVCTLPPSQEEMTKNQVSLSCAVKGFYPSDIAVEWESNGQPENNYKTTPPVLDSDGSFFLVSRLTVDKSRWQEGNVFSCSVMHEALHNHYTQKSLSLSLGK
notes: also called HCA14 -KB; monovalent antibody
In the case of B1, the Kd [3] is reported as 13.9 nM, the koff [3] is reported as 0.000481 s⁻¹ and the kon [3] is reported as 34500 M⁻¹ s⁻¹.

Reference: US20240018243A1 (NOVOMAB BIOPHARMACEUTICALS, published 2024)
